Source: the FLAb antibody collection (doi:10.7554/elife.23156)

B1: scFv; the commonest letter at each place (parent)
chain 1: EVKLDETGGGLVQPGRPMKLSCVASGFTFSDYWMNWVRQSPEKGLEWVAQIRNKPYNYETYYSDSVKGRFTISRDDSKSSVYLQMNNLRVEDMGIYYCTGSYYGMDYWGQGTSVTVS
chain 2: DVVMTQTPLSLPVSLGDQASISCRSSQSLVHSNGNTYLRWYLQKPGQSPKVLIYKVSNRFSGVPDRFSGSGSGTDFTLKISRVEAEDLGVYFCSQSTHVPWTFGGGTKLEIK

Tests used:
fluorescein = variants of: B1; assay: Kd (Tite-Seq); conditions: with fluorescein; format: scFv 4-4-20, heavy + light
[1] = variants of: B1; assay: yeast surface expression (ratio to wild type); higher = more expressed; conditions: format: scFv 4-4-20, heavy + light

| Variant | Kd (fluorescein) [µM] | yeast surface expression [1] |
| --- | --- | --- |
| chain 1 W33H M34R V37T | ≥ 10 | 0.786 |
| chain 1 G100N Y107K | ≥ 10 | 0.6 |
| chain 1 N35H W36L | ≥ 10 | 0.718 |
| chain 1 M34L W36V | ≥ 10 | 0.558 |
| chain 1 G100V Y107H | ≥ 10 | 0.772 |
| chain 1 G100H S101G | ≥ 10 | 0.649 |
| chain 1 G100A S101F | ≥ 10 | 0.652 |
| chain 1 G104C Y107P W108I | ≥ 10 | 0.214 |
| chain 1 Y102A D106L | ≥ 10 | 0.691 |
| chain 1 Y102E Y103I | ≥ 10 | 0.862 |
| chain 1 Y102E Y107A | ≥ 10 | 0.904 |
| chain 1 D31V M34C | ≥ 10 | 0.411 |
| chain 1 D31N W36C | ≥ 10 | 0.275 |
| chain 1 T28G N35C | ≥ 10 | 0.586 |
| chain 1 S101H Y107R | ≥ 10 | 0.581 |
| chain 1 M34Q V37T | ≥ 10 | 0.629 |
| chain 1 G104A | ≥ 10 | 0.693 |
| chain 1 M34T W36L | ≥ 10 | 0.455 |
| chain 1 F29G S30E | ≥ 10 | 1 |
| chain 1 Y102A Y103K G109C | ≥ 10 | 0.237 |
| chain 1 Y32I M34A | ≥ 10 | 0.821 |
| chain 1 G100D G109V | ≥ 10 | 0.136 |
| chain 1 T28H W36L | ≥ 10 | 0.454 |
| chain 1 D106T W108Q | ≥ 10 | 0.5 |

| Variant | Kd (fluorescein) [µM] | yeast surface expression [1] |
| --- | --- | --- |
| chain 1 D31T W36C | ≥ 10 | 0.789 |
| chain 1 Y102F G109N | ≥ 10 | 0.27 |
| chain 1 W36Q | ≥ 10 | 0.308 |
| chain 1 Y102L D106W | ≥ 10 | 0.238 |
| chain 1 T28K D31I | ≥ 10 | 0.645 |
| chain 1 M105H W108D | ≥ 10 | 0.353 |
| chain 1 Y102G Y107F W108K | ≥ 10 | 0.71 |
| chain 1 S101A Y102P | ≥ 10 | 0.793 |
| chain 1 S101D Y102F | ≥ 10 | 0.93 |
| chain 1 Y32M W33E | ≥ 10 | 1.18 |
| chain 1 G104S W108S | ≥ 10 | 0.304 |
| chain 1 G100S Y102C | ≥ 10 | 0.675 |
| chain 1 W33I N35Y V37C | ≥ 10 | 0.443 |
| chain 1 F29I Y32G | ≥ 10 | 1.08 |
| chain 1 Y32D N35Y | ≥ 10 | 0.498 |
| chain 1 Y32M W36D | ≥ 10 | 0.63 |
| chain 1 M34F N35E | ≥ 10 | 0.811 |
| chain 1 N35A W36P | ≥ 10 | 0.663 |
| chain 1 D106Y G109Q | ≥ 10 | 0.171 |
| chain 1 Y32D | ≥ 10 | 1.04 |
| chain 1 S30G W36L | ≥ 10 | 0.597 |
| chain 1 G100Q G109M | ≥ 10 | 0.223 |
| chain 1 G109W | ≥ 10 | 0.217 |
| chain 1 Y102R Y107N | ≥ 10 | 0.81 |

| Variant | Kd (fluorescein) [µM] | yeast surface expression [1] |
| --- | --- | --- |
| chain 1 M105Y W108N | ≥ 10 | 0.301 |
| chain 1 T28F F29R | ≥ 10 | 0.797 |
| chain 1 T28H Y32I | ≥ 10 | 0.92 |
| chain 1 S30I N35P | ≥ 10 | 0.35 |
| chain 1 T28G D31C | ≥ 10 | 0.472 |
| chain 1 S101L G109I | ≥ 10 | 0.297 |
| chain 1 S101P W108T | ≥ 10 | 0.168 |
| chain 1 Y103M M105H D106Y | ≥ 10 | 0.63 |
| chain 1 Y103G M105S | ≥ 10 | 0.983 |
| chain 1 F29A W33I | ≥ 10 | 0.852 |
| chain 1 Y32T N35P | ≥ 10 | 0.612 |
| chain 1 G100R W108Y | ≥ 10 | 0.478 |
| chain 1 W33F N35Q | ≥ 10 | 0.614 |
| chain 1 Y102R M105G | ≥ 10 | 0.754 |
| chain 1 S101G Y103R | ≥ 10 | 0.949 |
| chain 1 Y102A Y103E | ≥ 10 | 1.23 |
| chain 1 Y103L D106H G109F | ≥ 10 | 0.0981 |
| chain 1 D31S Y32W | ≥ 10 | 0.83 |
| chain 1 D31L W33D | ≥ 10 | 0.81 |
| chain 1 Y107I W108R | ≥ 10 | 0.466 |
| chain 1 T28S M34R | ≥ 10 | 1.99 |
| chain 1 W33T M34S V37E | ≥ 10 | 0.787 |
| chain 1 F29I N35P | ≥ 10 | 2.62 |
| chain 1 G104Q G109M | ≥ 10 | 0.0981 |

The next lines start with results.

| Kd (fluorescein) [µM] | Variant | yeast surface expression [1] |
| --- | --- | --- |
| ≥ 10 | chain 1 N35Q W36M | 0.504 |
| ≥ 10 | chain 1 Y103M G109Y | 0.265 |
| 9.5 | chain 1 G100L G109S | 0.566 |
| 0.0107 | chain 1 M34Y | 1.05 |
| 0.00194 | chain 1 V37Q | 0.731 |
| ≥ 10 | chain 1 G100S Y107D | 0.543 |
| ≥ 10 | chain 1 Y102F G104K | 0.81 |
| ≥ 10 | chain 1 G100Q D106I | 0.184 |
| ≥ 10 | chain 1 G100R S101H | 0.282 |
| ≥ 10 | chain 1 Y103C M105G | 0.611 |
| ≥ 10 | chain 1 G104Y M105L | 0.44 |
| ≥ 10 | chain 1 F29H W36C | 0.281 |
| 0.00708 | chain 1 T28P F29V | 0.927 |
| 0.0245 | chain 1 G100A M105Q | 1.15 |
| 0.00672 | chain 1 F29E N35I | 0.276 |
| 0.0205 | chain 1 W36Y V37I | 0.75 |
| 0.00131 | chain 1 D106N | 0.681 |
| 0.0402 | chain 1 F29L | 0.984 |
| 0.00194 | chain 1 Y103G W108F | 1.06 |
| 0.0729 | chain 1 D31K Y32G | 0.879 |
| 0.79 | chain 1 D31R W36M V37G | 3.04 |
| 0.0507 | chain 1 T28K W36R | 0.393 |

| Kd (fluorescein) [µM] | Variant | yeast surface expression [1] |
| --- | --- | --- |
| 0.00871 | chain 1 T28D F29Y | 0.975 |
| 0.00708 | chain 1 T28S S30I | 0.741 |
| 0.0434 | chain 1 Y32A M34V | 0.941 |
| 0.0272 | chain 1 S30K V37A | 0.745 |
| 0.47 | chain 1 D31N V37H | 0.626 |
| 0.311 | chain 1 F29N S30T M34E | 1.73 |
| 5.96 | chain 1 S30C D31F | 0.592 |
| 0.000454 | chain 1 W36F V37C | 0.75 |
| 0.00301 | chain 1 Y103K | 1.04 |
| 0.345 | chain 1 F29T D31A | 0.838 |
| 0.0767 | chain 1 F29K S30A W36A | 0.756 |
| 0.00162 | chain 1 G100C | 0.893 |
| 0.0335 | chain 1 G100S Y102K | 0.868 |
| 5.96 | chain 1 G100A Y103L W108G | 0.436 |
| 0.00917 | chain 1 Y102D W108T | 0.785 |
| 0.00575 | chain 1 Y102A M105F | 0.979 |
| 0.435 | chain 1 Y32L | 0.893 |
| 4.15 | chain 1 M105E | 1.01 |
| 0.000333 | chain 1 M105R W108L | 0.585 |
| 9.5 | chain 1 F29C S30T N35E | 0.668 |
| 0.00166 | chain 1 Y103W W108L | 0.629 |
| 0.00175 | chain 1 M105F W108L | 0.451 |
